# T1: Cynomolgus monkey CD1a protein (Cynomolgus monkey)
# T1 chain: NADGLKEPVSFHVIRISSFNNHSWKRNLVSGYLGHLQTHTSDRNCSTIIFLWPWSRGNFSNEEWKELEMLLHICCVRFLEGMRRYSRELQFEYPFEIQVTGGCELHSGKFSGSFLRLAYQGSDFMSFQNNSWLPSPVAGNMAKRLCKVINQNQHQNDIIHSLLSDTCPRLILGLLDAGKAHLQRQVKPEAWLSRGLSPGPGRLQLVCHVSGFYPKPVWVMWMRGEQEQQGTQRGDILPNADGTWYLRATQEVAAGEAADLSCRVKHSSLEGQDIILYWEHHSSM
# Tests used:
# [1] = molecular target: Chinese variant CD1a protein (human) (UniProt P06126); experiment: ELISA, 1 µg/ml antibody
# [2] = molecular target: Chinese variant CD1a protein (human) (UniProt P06126); experiment: ELISA, 10 µg/ml antibody
# [3] = molecular target: Chinese variant CD1a protein (human) (UniProt P06126); experiment: ELISA, 0.1 µg/ml antibody
# [4] = molecular target: Chinese variant CD1a protein (human) (UniProt P06126); experiment: ELISA, 0.01 µg/ml antibody
# [5] = molecular target: T1, Cynomolgus monkey CD1a protein; experiment: ELISA, 1 µg/ml antibody
# [6] = molecular target: T1, Cynomolgus monkey CD1a protein; experiment: ELISA, 10 µg/ml antibody
# [7] = molecular target: T2, human CD1b expressed on HEK-293 cells (human, UniProt P29016 18-333; P61769 21-119); experiment: flow cytometry, HEK-293 cells
# T2 construct: also called HEK - CD1b
# Protocol: (§1) CD1a-specific antibodies were identified by flow cytometry. Binding to proteins expressed on HEK, C1R and MOLT4 cell lines was assessed. […] The C1R-CD1a, C1R-empty vector and MOLT4 cell lines were washed in 1×PBS on the day required. All cell lines were counted and resuspended in 1×PBS and then stained for 30 minutes at 37° C. using the DiI or DiO cellular stains (Invitrogen). Cells were washed with flow cytometry buffer (1% bovine serum albumin, 2 mM EDTA and 0.1% sodium azide in PBS) before mixing 2 DiI-stained and DiO-stained populations together. The cells (20 μl/well) were then added to dilutions of antibody sample (B cell culture supernatant, TAP supernatant, clone supernatant, purified antibody solution) (20 μl/well) and incubated for 1 hour at 4° C. in a flow cytometry assay plate, before being washed with flow cytometry buffer. 10 μl/well of Alexafluor647-conjugated goat anti-species IgG Fc-specific F(ab′)2 fragment (Jackson ImmunoResearch), diluted 1:2500 in flow cytometry buffer, was added and incubated at 4° C. for 30 minutes, followed by washing with wash buffer. The fluorescence intensity was then measured on an iQue screener PLUS.
# [8] = molecular target: T3, human CD1c expressed on HEK-293 cells (human, UniProt P29017 18-333; P61769 21-119); experiment: flow cytometry, HEK-293 cells
# T3 construct: also called HEK - CD1c
# Protocol: as §1
# [9] = molecular target: T4, human CD1d expressed on HEK-293 cells (human, UniProt P15813 20-335; P61769 21-119); experiment: flow cytometry, HEK-293 cells
# T4 construct: also called HEK - CD1d
# Protocol: as §1
# [10] = molecular target: T5, human CD1a protein (pool B) (human, UniProt P06126 18-295, limits assumed); experiment: ELISA, 0.1 µg/ml antibody
# T5 construct: Recombinant protein of the ELISA (coated) and the Biacore T200 titration; whole entry named; also called human CD1a pool B; full length CD1a
# Protocol: (§2) CD1a-specific antibodies were identified by ELISA. […] 20 μl/well of peroxidase-conjugated goat anti-species IgG Fc-specific F(ab′)2 fragment (Jackson ImmunoResearch), diluted 1:5000 in block buffer was added and incubated at room temperature for 1 hour, followed by washing with wash buffer.
# The antibodies were titrated through a dilution series and compared to a control rabbit IgG antibody.
# [11] = molecular target: chimeric CD1a pool B protein [human CD1a lipid binding domain, mouse CD1d Ig domain] (human; mouse, UniProt P06126 18-201; P11609 205-297, limits assumed); experiment: ELISA, 0.1 µg/ml antibody
# Protocol: as §2
# The antibodies were titrated through a dilution series and compared to a control rabbit IgG antibody. […] Data shown for purified antibodies.
# [12] = molecular target: T1, Cynomolgus monkey CD1a protein; experiment: ELISA, 0.1 µg/ml antibody
# [13] = molecular target: T1, Cynomolgus monkey CD1a protein; experiment: ELISA, 0.01 µg/ml antibody
# [14] = molecular target: T6, human CD1a expressed on cells (human, UniProt P06126 17-327; P61769 21-119); experiment: flow cytometry, C1R cells, 1 µg/ml antibody
# T6 construct: also called HEK - CD1a; C1R - CD1a
# Protocol: (§3) Binding to proteins expressed on HEK, C1R and MOLT4 cell lines was assessed. […] The C1R-CD1a, C1R-empty vector and MOLT4 cell lines were washed in 1×PBS on the day required. All cell lines were counted and resuspended in 1×PBS and then stained for 30 minutes at 37° C. using the DiI or DiO cellular stains (Invitrogen). Cells were washed with flow cytometry buffer (1% bovine serum albumin, 2 mM EDTA and 0.1% sodium azide in PBS) before mixing 2 DiI-stained and DiO-stained populations together. The cells (20 μl/well) were then added to dilutions of antibody sample (B cell culture supernatant, TAP supernatant, clone supernatant, purified antibody solution) (20 μl/well) and incubated for 1 hour at 4° C. in a flow cytometry assay plate, before being washed with flow cytometry buffer. 10 μl/well of Alexafluor647-conjugated goat anti-species IgG Fc-specific F(ab′)2 fragment (Jackson ImmunoResearch), diluted 1:2500 in flow cytometry buffer, was added and incubated at 4° C. for 30 minutes, followed by washing with wash buffer. The fluorescence intensity was then measured on an iQue screener PLUS.
# (§4) Binding was quantified as fold change in fluorescence intensity geomean over background assessed by flow cytometry.
# [15] = molecular target: T6, human CD1a expressed on cells; experiment: flow cytometry, C1R cells, 10 µg/ml antibody
# Protocol: as §3, §4
# [16] = molecular target: T6, human CD1a expressed on cells; experiment: flow cytometry, C1R cells, 0.1 µg/ml antibody
# Protocol: as §3, §4
# [17] = molecular target: T6, human CD1a expressed on cells; experiment: flow cytometry, MOLT4 cells, 1 µg/ml antibody
# Protocol: as §1, §4
# [18] = molecular target: T6, human CD1a expressed on cells; experiment: flow cytometry, MOLT4 cells, 10 µg/ml antibody
# Protocol: as §1, §4
# [19] = molecular target: T6, human CD1a expressed on cells; experiment: flow cytometry, HEK-293 cells, 1 µg/ml antibody
# Protocol: as §3
# (§5) HEK-293 cells were transiently transfected with human CD1a, CD1b, CD1c or CD1d and co-transfected with human β2M.
# [20] = molecular target: T6, human CD1a expressed on cells; experiment: flow cytometry, MOLT4 cells, 0.1 µg/ml antibody
# Protocol: as §1, §4
# [21] = molecular target: T7, Cynomolgus monkey CD1a expressed on HEK-293 cells (Cynomolgus monkey, UniProt A0A2K5VQ68 17-326); experiment: flow cytometry, HEK-293 cells, 1 µg/ml antibody
# Protocol: as §3, §4
# [22] = molecular target: T6, human CD1a expressed on cells; experiment: flow cytometry, HEK-293 cells, 10 µg/ml antibody
# Protocol: as §3, §5
# [23] = molecular target: T7, Cynomolgus monkey CD1a expressed on …; experiment: flow cytometry, HEK-293 cells, 10 µg/ml antibody
# Protocol: as §3, §4
# [24] = molecular target: T6, human CD1a expressed on cells; experiment: flow cytometry, HEK-293 cells, 0.1 µg/ml antibody
# Protocol: as §3, §5
# [25] = molecular target: T7, Cynomolgus monkey CD1a expressed on …; experiment: flow cytometry, HEK-293 cells, 0.1 µg/ml antibody
# Protocol: as §3, §4
# [26] = molecular target: T7, Cynomolgus monkey CD1a expressed on …; experiment: flow cytometry, HEK-293 cells, 0.01 µg/ml antibody
# Protocol: as §3, §4
# [27] = molecular target: T5, human CD1a protein (pool B); experiment: SPR (Biacore T200), antibody captured, human CD1a titrated, heterogeneous ligand model (KD)
# Protocol: (§6) The affinity of the purified antibodies to human CD1a was assessed using a Biacore T200 instrument (GE Healthcare) by capturing the antibody to an immobilized anti-species IgG F(ab′)2 followed by titration of human CD1a. Affinipure Goat anti-species IgG-F(ab′)2 fragment specific (Jackson ImmunoResearch) was immobilized on a CM5 Sensor Chip (GE Healthcare) via amine coupling chemistry to a capture level of ˜5000 response units (RUs). HBS-EP+ buffer (10 mM HEPES pH 7.4, 0.15 M NaCl, 3 mM EDTA, 0.05% Surfactant P20, GE Healthcare) was used as the running buffer with a flow rate of 10 μL/min. A 10 μL injection of test antibody at 0.5 μg/mL was used for capture by the immobilized Goat Anti-species Fab.
# (§7) Affinity was required to be <100 nM to be considered for progression.
# [28] = molecular target: T5, human CD1a protein (pool B); experiment: SPR (Biacore T200), antibody captured, human CD1a titrated, heterogeneous ligand model (ka)
# Protocol: as §6, §7
# [29] = molecular target: T5, human CD1a protein (pool B); experiment: SPR (Biacore T200), antibody captured, human CD1a titrated, heterogeneous ligand model (kd)
# Protocol: as §6
# (§8) The surface was regenerated between cycles by injection of 2×10 μL of 40 mM HCl, interspersed by a 10 μL injection of 5 mM NaOH at flowrate of 10 μL/min. Background subtraction binding curves were analyzed using the Biacore T200 evaluation software following standard procedures. Kinetic parameters were determined from the fitting algorithm. This assay was performed at the clone supernatant and purified antibody stage.
# as §7
# [30] = molecular target: T5, human CD1a protein (pool B); experiment: SPR (Biacore T200), antibody captured, human CD1a titrated, heterogeneous ligand model (KD2)
# Protocol: as §6, §8, §7
# [31] = molecular target: T5, human CD1a protein (pool B); experiment: SPR (Biacore T200), antibody captured, human CD1a titrated, heterogeneous ligand model (ka 2)
# Protocol: as §6, §8, §7
# [32] = molecular target: T5, human CD1a protein (pool B); experiment: SPR (Biacore T200), antibody captured, human CD1a titrated, heterogeneous ligand model (kd 2)
# Protocol: as §6, §8, §7
# Chain of Chinese variant CD1a protein (human) (P06126 18-295, change not shown): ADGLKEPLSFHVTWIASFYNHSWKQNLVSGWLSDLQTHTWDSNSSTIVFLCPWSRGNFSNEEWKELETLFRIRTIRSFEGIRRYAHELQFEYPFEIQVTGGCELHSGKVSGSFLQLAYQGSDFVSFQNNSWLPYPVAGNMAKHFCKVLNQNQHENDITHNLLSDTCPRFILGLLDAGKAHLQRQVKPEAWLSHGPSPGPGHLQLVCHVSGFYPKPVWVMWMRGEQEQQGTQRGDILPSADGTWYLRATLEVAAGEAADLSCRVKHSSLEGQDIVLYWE
# T5 sequence (P06126 18-295 limits assumed): as the sequence (P06126 18-295, change not shown) above
# T7 sequence (A0A2K5VQ68 entry or part of it): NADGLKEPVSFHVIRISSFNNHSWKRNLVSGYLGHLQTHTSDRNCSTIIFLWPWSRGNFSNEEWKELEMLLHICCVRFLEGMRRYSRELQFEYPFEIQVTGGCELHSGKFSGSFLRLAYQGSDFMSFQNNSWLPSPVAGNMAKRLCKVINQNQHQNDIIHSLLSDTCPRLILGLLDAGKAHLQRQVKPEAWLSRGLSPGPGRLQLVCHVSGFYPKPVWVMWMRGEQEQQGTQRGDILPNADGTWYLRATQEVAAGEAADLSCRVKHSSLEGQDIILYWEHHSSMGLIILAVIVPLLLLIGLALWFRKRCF
# Chain of chimeric CD1a pool B protein [human CD1a lipid binding domain, mouse CD1d Ig domain] (P06126 other isoform, or with tags, fused parts or gaps mutant limits assumed): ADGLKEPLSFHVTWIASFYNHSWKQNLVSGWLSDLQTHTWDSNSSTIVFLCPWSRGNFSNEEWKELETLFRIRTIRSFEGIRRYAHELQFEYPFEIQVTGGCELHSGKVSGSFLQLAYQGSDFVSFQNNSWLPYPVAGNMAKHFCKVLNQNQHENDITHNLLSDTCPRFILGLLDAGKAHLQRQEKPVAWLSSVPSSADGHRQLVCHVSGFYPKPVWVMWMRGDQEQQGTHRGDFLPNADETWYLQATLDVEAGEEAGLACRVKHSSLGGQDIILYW
binder,measurement,setting,value
"16 (VR11834) (antibody, V domains shown, also called OX16; antibody 16) VH: EVQLVESGGGLVKPGGSLKLSCAASGFTFSNYAMSWVRQTPEKRLEWVAAINSNGGSAYYPDTVKDRFTISRDNAKNTLYLQMSSLRSEDTALYYCARRFYYDYGWFAYWGQGTLVTVSS VL: DIVLTQSPASLSASVGETVTITCRASENIDSYLAWYQQKQGKSPQLLVYAATLLADGVPSRFSGSGSGTQYSLKINSLQSEDVARYYCQHYYSSPWTFGGGTKLEIK",Optical Density (OD),[1],1.35 OD
same,Optical Density (OD),[2],1.44 OD
same,Optical Density (OD),[3],1.3 OD
same,Optical Density (OD),[4],1.01 OD
same,Optical Density (OD),[5],0.58 OD
same,Optical Density (OD),[6],0.49 OD
same,binding result,[7],no binding
same,binding result,[8],no binding
same,binding result,[9],no binding
same,Optical Density (OD),[10],0.59 OD
same,Optical Density (OD),[11],0.7 OD
same,Optical Density (OD),[12],0.57 OD
same,Optical Density (OD),[13],0.46 OD
same,Fluorescence Intensity Geomean (normalized to background),[14],10.1 fold over background
same,Fluorescence Intensity Geomean (normalized to background),[15],7 fold over background
same,Fluorescence Intensity Geomean (normalized to background),[16],10.2 fold over background
same,Fluorescence Intensity Geomean (normalized to background),[17],15 fold over background
same,Fluorescence Intensity Geomean (normalized to background),[18],7.5 fold over background
same,Fluorescence Intensity Geomean (normalized to background),[19],19.6 fold over background
same,Fluorescence Intensity Geomean (normalized to background),[20],14.4 fold over background
same,Fluorescence Intensity Geomean (normalized to background),[21],7.6 fold over background
same,Fluorescence Intensity Geomean (normalized to background),[22],10.2 fold over background
same,Fluorescence Intensity Geomean (normalized to background),[23],8.8 fold over background
same,Fluorescence Intensity Geomean (normalized to background),[24],12.9 fold over background
same,Fluorescence Intensity Geomean (normalized to background),[25],8.5 fold over background
same,Fluorescence Intensity Geomean (normalized to background),[26],6.9 fold over background
same,Kd,[27],0.392 nM
same,kon,[28],1.86e+06 M⁻¹ s⁻¹
same,koff,[29],0.000729 s⁻¹
same,Kd,[30],12.8 nM
same,kon,[31],514000 M⁻¹ s⁻¹
same,koff,[32],0.00658 s⁻¹

# Source: patent publication US20250289893A1 (OXFORD UNIVERSITY INNOVATION, published 2025)
